Data as given in the supplement of paper PMC7125110.
± gives the standard error. For some assays here: Variants at the floor of the assay were thinned out.

B1: glmS ribozyme (parent)
chain: AUAAAAGCGCCAGAACUACAGAAAUGUAGUUGACGAGGAGGAGGUUUAUCGAAUUUUCGGCGGAUGCCUCCAAA

Assays:
Conditions in all cases: with glucosamine-6-phosphate
[1] = variants of: B1; assay: kcat; higher = faster cleavage; RNA array
Outline: (§1)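 kobs was derived by fitting per-tile medians to one- or two-exponential decays after normalising signals to baseline and to non-cleaving reference variants. Those signals came from barcoded ribozyme variants transcribed in situ by E. coli RNA polymerase on sequenced MiSeq chips, followed through a hybridised Cy3 probe at 37 °C and imaged over ~14 h. Glucosamine-6-phosphate (40 μM to 10 mM) in HEPES/KCl/Mg(OAc)2 buffer was flowed in. Weighted Michaelis–Menten fits across concentrations then gave kcat and KM.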

[2] = variants of: B1; assay: KM; higher = weaker cofactor use; RNA array
Outline: as §1

[3] = variants of: B1; assay: self-cleavage kobs at 40 uM GlcN6P; higher = faster cleavage; RNA array
Outline: as §1

[4] = variants of: B1; assay: self-cleavage kobs at 160 uM GlcN6P; higher = faster cleavage; RNA array
Outline: as §1

[5] = variants of: B1; assay: self-cleavage kobs at 640 uM GlcN6P; higher = faster cleavage; RNA array
Outline: as §1

[6] = variants of: B1; assay: self-cleavage kobs at 2500 uM GlcN6P; higher = faster cleavage; RNA array
Outline: as §1

[7] = variants of: B1; assay: self-cleavage kobs at 10000 uM GlcN6P; higher = faster cleavage; RNA array
Outline: as §1

Row | Variant | kcat [1] [s⁻¹] | KM [2] [µM] | self-cleavage kobs at 40 uM GlcN6P [3] [s⁻¹] | self-cleavage kobs at 160 uM GlcN6P [4] [s⁻¹] | self-cleavage kobs at 640 uM GlcN6P [5] [s⁻¹] | self-cleavage kobs at 2500 uM GlcN6P [6] [s⁻¹] | self-cleavage kobs at 10000 uM GlcN6P [7] [s⁻¹]
1 | AUAAAAGCGCCAGAACUACAGAAAUGUAGUAGACGAGGAGGAGGUUUAUCGAAUUCUCGGCGGAUGCCUCCAAA [U31A U56C] | 0.00331 ± 0.0008 | 2630 ± 990 | 6.48e-05 ± 1.3e-05 | 0.000186 ± 4.2e-05 | 0.00066 ± 0.00012 | 0.00115 ± 0.00025 | 0.00299 ± 0.00037
2 | AUAAAAGCGCCAGAACUACAGAAAUGUAGUAGACGAGGAGUAGGUUUAUCGAAUUUUCGGCGGAUGCCUCCAAA [U31A G41U] | 0.000384 ± 3.8e-05 | 430 ± 89 | 2.67e-05 ± 1.2e-05 | 0.000103 ± 2e-05 | 0.000289 ± 6.2e-05 | 0.00034 ± 8.7e-05 | 0.000344 ± 6e-05
3 | AUAAAAGCGCCAGAACUACAGAAAUGUAGUCGACGAGGAGGAGGUUCAUCGAAUUUUCGGCGGAUGCCUCCAAA [U31C U47C] | 0.000503 ± 6.2e-05 | 2160 ± 430 | – | – | 0.000111 ± 2e-05 | 0.000269 ± 5.7e-05 | 0.00042 ± 0.00011
4 | AUAAAAGCGCCAGAACUACAGAAAUGUAGUCGACGAGGAGAAGGUUUAUCGAAUUUUCGGCGGAUGCCUCCAAA [U31C G41A] | 9.11e-05 ± 9.7e-06 | – | – | – | 6.76e-05 ± 1.5e-05 | 9.23e-05 ± 1.6e-05 | 8.13e-05 ± 1.2e-05
5 | AUAAAAGCGCCAGAACUACAGAAAUGUAGUAGACGAGGAGGAGGUUUAUCGAAUUUUCGGCGGAUGCCGCCAAA [U31A U69G] | 5.26e-05 ± 7e-06 | – | – | 4.7e-05 ± 1.3e-05 | 6.47e-05 ± 1.5e-05 | 5.62e-05 ± 1.2e-05 | 4.26e-05 ± 9.9e-06
6 | AUAAAAGCGCCAGAACUACAGAAAUGUAGUCGACGAGGAGGAGGCUUAUCGAAUUUUCGGCGGAUGCCUCCAAA [U31C U45C] | 0.0005 ± 0.0001 | 4690 ± 1600 | – | – | 5.17e-05 ± 1.1e-05 | 0.000213 ± 3.5e-05 | 0.000327 ± 4.5e-05
7 | AUAAAAGCGCCAGAACUACAGAAAUGUAGUAGACGAGGAGGAGGUUUAUCGAAUAUUCGGCGGAUGCCUCCAAA [U31A U55A] | 0.0251 ± 0.0036 | 3810 ± 790 | – | 0.000953 ± 0.00022 | 0.00452 ± 0.0014 | 0.00953 ± 0.0034 | 0.0182 ± 0.0035
8 | AUAAAAGCGCCAGAACUACAGAAAUGUAGUCGACGAGGAGGAGGUUUAUAGAAUUUUCGGCGGAUGCCUCCAAA [U31C C50A] | < 1e-05 | – | < 1e-05 | – | – | – | –
